Data taken from US20260028391A1.
Substitutions are numbered along the chain they refer to.

Legend:
[1] = target: MPV fusion glycoprotein with the D280N mutation (MPV-F N280) (metapneumovirus); assay: SPR; F protein loaded on streptavidin sensors, mAb in solution
[2] = target: MPV fusion glycoprotein without the D280N mutation (MPV-F D280) (metapneumovirus); assay: as above
[3] = target: fusion glycoprotein of the RSV used in the neutralization assay of Example 1 (respiratory syncytial virus (strain not stated)); assay: cell-based or functional assay
[4] = target: fusion glycoprotein of the MPV D280 used in the neutralization assay of Example 3 (metapneumovirus (strain not stated)); assay: cell-based or functional assay

B1: MPK141 (antibody, V domains shown)
VH: EVQLVESGGGLVKPGGSLRLSCAASGFTISGYYMTWIRQAPGKGLEWISYISGSSSYTNYADSVKGRFTISRDNGRNSVYLQMNSLRADDTGVYYCAREETPSPGPFDSWGQGILVTVSS
VL: QSVLTQPPSVSGAPGQRIIISCIGSSSNIGTGYDVHWYQQLPGRAPKLLISRNTNRPSGIPDRFSGSKSGTSASLAITGLQADDEADYYCQSYDRGLDGWVFGGGTKLTVL
Kd [1]: 0.84 nM | Kd [2]: 0.001 nM | RSV Neutralization - IC50 [3]: 0.014 µg/mL | MPV D280 Neutralization - IC50 [4]: 0.0098 µg/mL

B2: MPK126 (antibody, V domains shown)
VH: EVQLVESGGGLVKPGGSMRLSCAASGVTLSGYYMIWIRQAPGKGLEWISDISASSTYTDYADSVKGRFTVSRDNSQNTVYLQMNSLRAEDTAVYYCATEQTPSPGPFDLWGQGTLVTVSS
VL: QSVLTQPPSVSGAPGQRVTISCTGSSSNVGAGYDVHWYQQFPGTSPKLLIYRNTNRPSGVPDRFSGFKSGTSASLAITGLEAEDEADYYCQSYDRSLSGWVFGAGTKLTVL
Kd [1]: 0.21 nM | Kd [2]: 0.001 nM | RSV Neutralization - IC50 [3]: 0.0264 µg/mL | MPV D280 Neutralization - IC50 [4]: 0.0236 µg/mL

B3: MPK151 (antibody, V domains shown)
VH: B2 VH with M18L, V27L, L29I, D62E, T69S, V70I, S75G
VL: B2 VL with R17K, V18I, S25G, V29F, N55F, F67S, E81Q, A104G
Kd [1]: 0.27 nM | Kd [2]: 0.001 nM | RSV Neutralization - IC50 [3]: 0.0375 µg/mL | MPV D280 Neutralization - IC50 [4]: 0.0178 µg/mL

B4: MPK146 (antibody, V domains shown)
VH: QVQLVESGGGLVKPGGSLRLSCAASGFTFSGYYMIWIRQAPGKGLEWIASISGSSNYIDYADSVRGRFTISRDNARNILDLQMNSLRAGDTALYYCATEQVPSPGPFDLWGQGTLVTVSS
VL: B2 VL with S26N, V29L, S65A, F67S, E81Q, A104G
Kd [1]: 7.2 nM | Kd [2]: 0.001 nM

B5: MPK158 (antibody, V domains shown)
VH: EVQLVESGGGLVKPGGSLRLSCAASGFSISGFYMIWIRQAPGKGLEWISDISASSSYIDYADSVKGRFTISRDNGQNTVHLLMNNLRADDTGVYYCAREQTPSPGPFDLWGQGTLVTVST
VL: QPVLTQPPSVSGAPGQRVTISCTGRSSNIGAGYDVHWYQHLPGTSPKLLIYRNSNRPSGVPDRFSGSTSGTSASLAITGLQADDEADYYCQAYDRILGGWAFGGGTKLTVL
Kd [1]: 0.29 nM | Kd [2]: 0.001 nM

B6: MPK162 (antibody, V domains shown)
VH: EVQLVESGGGLVKPGDSLRLSCAASGFSLSSYYMFWIRQAPGKGLEWVSDISGGSTFTNYADSVKGRFTISRDNAKKVLYLQMNSLRVDDSAVYYCVRGSSISPNWFESWGQGALVTVSS
VL: QSVLTQPPSVSGAPGQRVTISCTGTSSNIGAGYDVHWYQQVPGTAPKLLIYGNSNRPSGVPDRFSGSKSGTAASLAINGLQTEDEAEYYCQSYDRSLTGSYVFGSGTRVFVR
Kd [1]: 100 nM | Kd [2]: 100 nM | RSV Neutralization - IC50 [3]: 0.0252 µg/mL | MPV D280 Neutralization - IC50 [4]: 0.102 µg/mL

B7: MPK142-v1 (antibody, V domains shown)
VH: EVQLVESGGGLVEPGGSLRLSCAASGFTISGYGMSWVRQAPGKGLEWVSSISASSSYIYYGDAMKGRITISRDNGWNSMYLQMNSLRTEDTAVYYCATAPIEPPYFDLWGRGTLVTVSS
VL: QSVLTQPPSVSGAPGQRVTISCTGSSSNIGAGYDVHWYQQFPGKAPKVLIYGNNNRPSGVPDRFAASNSGASASLAITGLQAEDEAAYFCQSYDRRLSGPVFGGGTKLTVL
Kd [1]: 100 nM | Kd [2]: 100 nM | RSV Neutralization - IC50 [3]: 0.0211 µg/mL | MPV D280 Neutralization - IC50 [4]: 0.003 µg/mL

B8: MPK142-v2 (antibody, V domains shown)
VH: B7 VH
VL: DIQLTQTPTSLSASVGDRVTFTCRASQNIGFYLNWYQQKPGKAPRLLIYGASNLQSGVPSRFSGSGAGTDFSLTISSLQPEDFATYYCQQSFNTPRTFGQGTKVEIN
Kd [1]: 0.2 nM | Kd [2]: 0.0027 nM | RSV Neutralization - IC50 [3]: 0.162 µg/mL | MPV D280 Neutralization - IC50 [4]: 0.135 µg/mL

B9: MPK145 (antibody, V domains shown)
VH: B7 VH
VL: B7 VL with L4V
Kd [1]: 0.85 nM | Kd [2]: 0.001 nM | RSV Neutralization - IC50 [3]: 0.0239 µg/mL | MPV D280 Neutralization - IC50 [4]: 0.0078 µg/mL

B10: MPK133 (antibody, V domains shown)
VH: QVQLVQSGGGLVKPGGSLRLSCAASEFSFSGYFMIWIRQAPGKGLEWISYISGSSTYTNYADSVKGRFTISRDNAQNTLYLEMNSLRAEDTGVYYCATEQVPSPGPFDLWGQGTLVTVSS
VL: QSVLTQPPSVSGAPGQRVTISCTGSSSNIGAGYDVHWYQQFPGRSPTLLIYRNTNRPSGVPDRFSGSQSGSSASLAITGLQAEDEADYYCQSYDRTLSGWAFGGGTKVTVL
Kd [1]: 3.7 nM | Kd [2]: 0.082 nM

B11: MPK174-v2 (antibody, V domains shown)
VH: EVQLVESGGGLVKPGGSLRLSCAASRFKFGDYYMSWIRQAPGKGLEWVSNISPSSSYTNYADSVKGRFTISRDNAKNLLYLQMNSLRAEDTAVYYCARESCSGGSCSLHGMDVWGQGTTVTVAS
VL: QSVLTQPPSVSGAPGQRVTISCTGSSSNIGAGYDVHWYQQLPGTAPKLLIYDNSNRPSGVPDRFSGSKSGTSASLAITGLRAEDDADYYCQSYDRSLGGSIFGGGTKLTVL
Kd [1]: 100 nM | Kd [2]: 11 nM | RSV Neutralization - IC50 [3]: 0.0136 µg/mL | MPV D280 Neutralization - IC50 [4]: 0.0177 µg/mL

B12: MPK144 (antibody, V domains shown)
VH: EVQLVESGGGLVRPGGSLRLSCAASGFTFTGYYMMWIRQAPGKGLEWISDISSSSSYTNYADSVKGRFAISRDNAQNTLYLQMNSLRAEDTAVYYCATEQVPSPGPFDLWGQGTLVTVSS
VL: B2 VL with V29F, F67S, E81Q, S98T, A104G
Kd [1]: 100 nM | Kd [2]: 0.81 nM | RSV Neutralization - IC50 [3]: 0.0082 µg/mL | MPV D280 Neutralization - IC50 [4]: 0.0049 µg/mL

B13: MPK196 (antibody, V domains shown)
VH: B11 VH with E1Q, K76N
VL: B11 VL
Kd [1]: 100 nM | Kd [2]: 3.8 nM | MPV D280 Neutralization - IC50 [4]: 0.027 µg/mL

B14: MPK193 (antibody, V domains shown)
VH: EVQLVQSGAEVKKPGESLKISCEASGYSFNNYWIGWVRQMPGKGLEWMGIIYPFDSDTKYSPSFQGHVTISADKSINTAYLQWSSLKASDTAMYFCARFTFGIVLVAGDVTGEGHAFDVWGRGTMVTVTS
VL: EIVMMQSPVTLSVSPGGRATLSCRASQSVAGNLAWYQQRPGQAPRLLIYGASTRATGVPARFSGSGSETEFTLTISSLQSEDFAVYYCHHYSNWPQAFGQGTRLDIK
RSV Neutralization - IC50 [3]: 0.001 µg/mL

B15: MPK201 (antibody, V domains shown)
VH: EVQLVQSGAEVKKPGESLKISCQGSGYSFINYWIGWVRQKPGKGLEWMGIIYPFDSETKYSPSFQGHVTFSADKSINTAYVQWSSLRASDTAMYYCARFTFGLAVTTADVSGEGQAFEIWGQGTMVTVSS
VL: B14 VL with V9A, G17E, I48V, T56S, N93D
RSV Neutralization - IC50 [3]: 0.0024 µg/mL

B16: MPK136 (antibody, V domains shown)
VH: EVQLVESGGGLVKPGGSLRLSCEASGFSLSGYYMIWIRQAPGKGLEWISSISGSGNYINYADSVKGRFTVSRDNGHNTLYLQMNSLRVEDTAVYYCATEQTPSPGPFDHWGQGTLVTVSS
VL: QVQLVQPPSVSGAPGQRVSISCTGTSSNIGTGYDVHWYQQFPGTSPKLLIYRNTNRPSGVPDRFSGSKSGSSASLAIAGLQAEDEADYYCQSYDRSVSGWVFGGGTKLTVL
Kd [1]: 4.6 nM | Kd [2]: 0.001 nM | RSV Neutralization - IC50 [3]: 0.0344 µg/mL | MPV D280 Neutralization - IC50 [4]: 0.0158 µg/mL

B17: MPK204 (antibody, V domains shown)
VH: B16 VH with E1Q, F27L, G53S, G55S, N59D, V70I, D73H, H76Q, H109L
VL: B16 VL with V2S, Q3V, V5T, S19T
Kd [1]: 2.6 nM | Kd [2]: 0.001 nM

B18: MPK149 (antibody, V domains shown)
VH: QVQLVESGGGLVKPGGSLRLSCEASGFTISGYFMIWIRQAPGKGLEWISSISGSSTYTDYAESVKGRFTISRDNGRSTLYLQMNSLRVEDTAVYYCATEQTPSPGPFDLWGQGTLVTVSS
VL: B16 VL with V2S, Q3V, L4V, V5T, S19T, T31A, K47R, Y51N, K68Q
Kd [1]: 0.4 nM | Kd [2]: 0.001 nM | RSV Neutralization - IC50 [3]: 0.0335 µg/mL | MPV D280 Neutralization - IC50 [4]: 0.0192 µg/mL

B19: MPK150-v2 (antibody, V domains shown)
VH: EVQLVESGGGLVKPGGSLRLSCEASGISLSGYYMIWIRQAPGKGLEWISSISGSSTYIDYADSVRGRFTISRHNGQNTIYLQMNSLRVEDTAVYFCATEQTPSPGPFELWGRGILVTVSS
VL: B16 VL with V2S, Q3V, V5T, S19T, S21F, Y51F, T54S, S96G, S98N
Kd [1]: 0.58 nM | Kd [2]: 0.001 nM | RSV Neutralization - IC50 [3]: 0.0147 µg/mL | MPV D280 Neutralization - IC50 [4]: 0.0158 µg/mL

B20: MPK130 (antibody, V domains shown)
VH: EVQLVESGGGLVKPGGSLTLSCEASGFSISGYYMIWVRQAPGKGLEWVSSISASDTYIDYAVSVQGRFTISRHNTKNSLYLQMSSLRVEDTGVYYCTREKVPSPGPFDCWGQGTLVTVSS
VL: QSVLTQPPSVSGAPGQRITISCTGTSSNIGAGYDVHWYQHLPGAAPRLLIYVNTNRPSGVPDRFSGARSGTSASLAITGLQAEDEADYYCQSYDRSLGGWAFGEGTKVTVL
Kd [1]: 1.9 nM | Kd [2]: 0.018 nM
